# Changes are numbered by the printed parent chain. Names may count otherwise.
# B1: VHH72_h1 (VHH)
# VHH: EVQLVESGGGLVQPGGSLRLSCAASGRTFSEYAMGWFRQAPGKEREFVATISWSGGSTYYTDSVKGRFTISRDNAKNTVYLQMNSLRPEDTAVYYCAAAGLGTVVSEWDYDYDYWGQGTLVTVSS
# B2: SARS VHH-72 (VHH)
# VHH: B1 VHH with E1Q, V5Q, P14A, R87K, E89D, L120Q
# B3: VHH72_h1(S56A) (VHH)
# VHH: B1 VHH with S57A
# B4: VHH72_h1 (E1D) (VHH)
# VHH: B1 VHH with E1D
# Legend:
# [1] = molecular target: SARS-CoV-1 spike, full length, on cells or on pseudotyped virus (SARS-CoV-1, UniProt P59594 14-1255); assay: cell-based or functional assay
# [2] = molecular target: SARS-CoV-2 RBD protein Avi-tag biotinylated (AcroBiosystems SPD-C82E9) (SARS-CoV-2, UniProt P0DTC2 330-518)
# SARS-CoV RBD = SARS-CoV RBD (SARS-CoV-1, UniProt P59594 320-502)
binder,measurement,setting,value
B1,"IC50, VSV-dG SARS-CoV-1 spike pseudotype neutralization",[1],0.491 µg/mL
B2,IC50,[2],16 nM
B3,"IC50, VSV-dG SARS-CoV-1 spike pseudotype neutralization",[1],0.045 µg/mL
same,fold better neutralization than parental VHH72,[1],10 fold
B4,koff,SARS-CoV RBD,0.00219 s⁻¹
